The text below walks through data of article doi:10.1101/2025.08.04.25332941.

Experiment [1] deals with HLA-A*33 with C-terminal His tag (A*33-His Tg) (human). The experiment in a line: SPR. In general terms: SPR reads the build-up and loss of mass on a sensor chip optically.
In experiment [2] the target is HLA-A*24 with C-terminal His tag (A*24-His Tg) (human). The experiment in a line: SPR.

“Toxoplasma antigenic peptide SAG2C, wild type”: the SPR response at 200 µM in experiment [1] was found to be 150 RU; in experiment [2], 15 RU.
